PMC4036194, “Crystal Structure and Molecular Imaging of the Nav Channel β3 Subunit Indicates a Trimeric Assembly*” (The Journal of Biological Chemistry, 2014)

Assays:
[1] = target: T1, Human Nav 1.5 α subunit with a carboxyl-terminal hemagglutinin (HA) epitope tag (human, UniProt Q14524 1-2016); test: atomic force microscopy (AFM) imaging; α subunit isolated through its HA tag from tsA 201 cells co-transfected with wild-type Myc-tagged β3; co-isolated sample on mica, imaged in air in tapping mode; conditions: both partners purified
T1 construct: Nav 1.5 sodium channel α subunit, human; ~250 kDa; Construct provided by Dr. C; source: tsA 201 cells, transfected (pcDNA3N); immunoisolated from detergent extract (anti-HA agarose, HA peptide elution); not shown: HA, C-terminal, kept
T1 sequence (Q14524 whole entry): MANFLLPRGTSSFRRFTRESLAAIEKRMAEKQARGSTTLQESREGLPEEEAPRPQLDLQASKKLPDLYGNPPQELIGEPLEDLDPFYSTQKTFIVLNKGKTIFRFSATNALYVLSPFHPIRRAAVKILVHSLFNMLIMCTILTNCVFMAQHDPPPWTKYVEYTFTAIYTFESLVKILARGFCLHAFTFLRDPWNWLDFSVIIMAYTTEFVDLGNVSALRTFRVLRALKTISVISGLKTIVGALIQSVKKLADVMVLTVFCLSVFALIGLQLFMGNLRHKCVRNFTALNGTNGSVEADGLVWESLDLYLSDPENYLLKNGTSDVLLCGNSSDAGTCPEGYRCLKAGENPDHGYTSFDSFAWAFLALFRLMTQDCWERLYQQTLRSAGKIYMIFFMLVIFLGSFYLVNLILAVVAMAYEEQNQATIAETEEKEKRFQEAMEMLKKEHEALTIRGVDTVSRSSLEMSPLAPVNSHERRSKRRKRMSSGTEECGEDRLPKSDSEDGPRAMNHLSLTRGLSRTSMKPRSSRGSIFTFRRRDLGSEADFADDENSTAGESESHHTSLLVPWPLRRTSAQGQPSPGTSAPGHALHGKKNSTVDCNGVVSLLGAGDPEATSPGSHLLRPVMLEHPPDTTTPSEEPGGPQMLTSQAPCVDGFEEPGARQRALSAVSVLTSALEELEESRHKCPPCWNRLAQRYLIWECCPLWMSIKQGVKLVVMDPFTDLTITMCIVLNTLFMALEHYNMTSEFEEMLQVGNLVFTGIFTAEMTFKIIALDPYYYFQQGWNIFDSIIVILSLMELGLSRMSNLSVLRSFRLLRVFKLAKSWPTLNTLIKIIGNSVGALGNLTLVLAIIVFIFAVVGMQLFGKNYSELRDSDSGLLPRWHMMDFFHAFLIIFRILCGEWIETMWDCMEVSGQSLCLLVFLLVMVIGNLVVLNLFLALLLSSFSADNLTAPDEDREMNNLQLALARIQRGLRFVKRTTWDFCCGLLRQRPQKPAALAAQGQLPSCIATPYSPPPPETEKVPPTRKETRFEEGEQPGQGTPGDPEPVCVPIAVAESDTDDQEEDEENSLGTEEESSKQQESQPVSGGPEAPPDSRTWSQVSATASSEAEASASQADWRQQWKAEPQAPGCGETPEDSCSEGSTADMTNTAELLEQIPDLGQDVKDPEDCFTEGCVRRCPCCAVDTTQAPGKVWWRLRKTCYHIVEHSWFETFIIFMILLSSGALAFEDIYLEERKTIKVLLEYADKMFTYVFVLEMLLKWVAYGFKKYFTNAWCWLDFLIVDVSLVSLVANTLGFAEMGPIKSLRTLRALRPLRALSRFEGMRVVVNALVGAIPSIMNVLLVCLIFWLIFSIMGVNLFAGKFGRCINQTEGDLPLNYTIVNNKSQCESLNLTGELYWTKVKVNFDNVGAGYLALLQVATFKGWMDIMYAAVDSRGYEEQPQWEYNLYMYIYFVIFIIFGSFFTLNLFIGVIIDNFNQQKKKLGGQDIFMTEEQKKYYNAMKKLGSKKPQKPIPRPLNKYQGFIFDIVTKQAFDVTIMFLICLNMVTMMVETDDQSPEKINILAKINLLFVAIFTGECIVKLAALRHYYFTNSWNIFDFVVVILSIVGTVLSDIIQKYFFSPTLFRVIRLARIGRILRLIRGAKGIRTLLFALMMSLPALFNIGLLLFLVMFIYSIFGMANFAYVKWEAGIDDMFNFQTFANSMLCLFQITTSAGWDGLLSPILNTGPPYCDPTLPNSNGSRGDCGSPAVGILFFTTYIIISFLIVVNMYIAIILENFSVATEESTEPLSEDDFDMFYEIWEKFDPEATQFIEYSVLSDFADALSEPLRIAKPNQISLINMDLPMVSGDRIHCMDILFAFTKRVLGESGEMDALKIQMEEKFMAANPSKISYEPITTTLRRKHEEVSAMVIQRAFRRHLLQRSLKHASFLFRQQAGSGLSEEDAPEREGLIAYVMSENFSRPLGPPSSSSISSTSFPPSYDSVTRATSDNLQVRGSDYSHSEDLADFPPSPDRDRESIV

[2] = target: the molecule itself; test: fluorescence photoactivated localization microscopy (FPALM) with pair correlation analysis; mEos2 fusions on the plasma membrane of fixed, transfected HEK293 cells; TIRF-PALM; 30 regions of 1 μm^2 on five cells; proteins per cluster
[3] = target: the molecule itself; test: crystal structure; deglycosylated β3 Ig domain; sitting drop, 1 M sodium citrate tribasic, 0.1 M CHES/sodium hydroxide pH 9.5, 19 °C; space group P3(1)21, three molecules in the asymmetric unit; 2.5 Å

B1: Full-length human β3 subunit with a carboxyl-terminal Myc epitope tag (natural protein, UniProt Q9NY72 23-215, looked up)
chain: FPVCVEVPSETEAVQGNPMKLRCISCMKREEVEATTVVEWFYRPEGGKDFLIYEYRNGHQEVESPFQGRLQWNGSKDLQDVSITVLNVTLNDSGLYTCNVSREFEFEAHRPFVKTTRLIPLRVTEEAGEDFTSVVSEIMMYILLVFLTLWLLIEMIYCYRKVSKAEEAAQENASDYLAIPSENKENSAVPVEE
notes: Nav channel β3 subunit (SCN3B), human, full length; runs at ~40 kDa (glycosylated) and ~30 kDa (likely unglycosylated); numbers count on: the mature protein; also called Myc-tagged β3 subunit; wild-type β3; source: tsA 201 cells, transfected (pFastBacMam); immunoisolated from detergent extract (anti-Myc agarose, Myc peptide elution); in detergent extract of co-transfected cells for co-isolation …
stoichiometry N [1]: 4

B2: Full-length β3 subunit tagged at the carboxyl terminus with mEos2 (natural protein, UniProt Q9NY72 23-215, looked up)
chain: B1 chain
notes: Nav channel β3 subunit (SCN3B), full length; also called β3-mEos2; β3-mEOS2; source: HEK293 cells, transiently transfected, on the plasma membrane of fixed cells; not shown: mEos2, C-terminal, kept
stoichiometry N [2]: 3

B3: Nav channel β3 subunit Ig domain with carboxyl-terminal hexa-His tag (domain or fragment, human)
chain: VCVEVPSETEAVQGNPMKLRCISCMKREEVEATTVVEWFYRPEGGKDFLIYEYRNGHQEVESPFQGRLQWNGSKDLQDVSITVLNVTLNDSGLYTCNVSREFEFEAHRPFVKTTRLIPLRV
modifications: disulfide bonds Cys-2–24 and Cys-21–96
notes: Nav channel β3 subunit (SCN3B), human, extracellular Ig domain; the cDNA also encodes the amino-terminal ER targeting signal, which was efficiently removed on secretion; 127 amino acids in total, theoretical mass 14.8 kDa; numbers count on: the mature protein; Deglycosylated with peptide:N-glycosidase F for crystallisation; chemically cross-linked for AUC; Surmise: the 127 residues are the mature …
stoichiometry N [3]: 3
